Patent US20160266136A1 (Stanford University, published 2016)

Assays:
mouse Gas6 [1] = target: T1, mouse Gas6 (mouse, UniProt Q61592 46-674, limits assumed); assay: KinExA; column Kd(pM) mGas6
T1 construct: Used both for the KinExA value against mouse Gas6 and for the endogenous Gas6 in the serum of the nude mice; also called Gas6 (in serum of mice)
T1 sequence (looked up): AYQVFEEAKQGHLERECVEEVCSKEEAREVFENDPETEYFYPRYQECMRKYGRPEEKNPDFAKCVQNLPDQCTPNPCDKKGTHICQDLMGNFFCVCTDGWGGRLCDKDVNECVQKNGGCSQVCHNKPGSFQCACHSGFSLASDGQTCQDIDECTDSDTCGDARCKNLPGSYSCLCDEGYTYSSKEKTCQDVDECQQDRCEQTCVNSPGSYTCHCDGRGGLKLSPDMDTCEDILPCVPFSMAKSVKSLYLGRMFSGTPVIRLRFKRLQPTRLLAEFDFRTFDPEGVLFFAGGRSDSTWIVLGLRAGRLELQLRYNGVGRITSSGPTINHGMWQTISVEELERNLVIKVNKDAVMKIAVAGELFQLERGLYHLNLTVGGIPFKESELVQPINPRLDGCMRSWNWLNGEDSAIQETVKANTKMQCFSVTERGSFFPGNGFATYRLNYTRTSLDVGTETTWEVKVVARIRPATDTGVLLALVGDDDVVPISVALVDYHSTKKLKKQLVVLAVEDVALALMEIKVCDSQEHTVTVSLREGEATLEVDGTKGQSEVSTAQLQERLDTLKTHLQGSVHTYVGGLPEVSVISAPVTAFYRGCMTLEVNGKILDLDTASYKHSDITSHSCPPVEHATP
Method: (§1) A KinExA 3200 instrument (Sapidyne Instruments Inc.) was used to measure equilibrium binding and association rate constants for the Gas6-Axl interactions. […] Adsorption coating of 200 mg of beads was performed using 45 μg of protein at room temp for 1 h. The protein solution was then removed and beads were blocked using PBS with 1% BSA for 2 h at room temp. Beads were stored in blocking buffer at 4° C. and used within two weeks. All binding reactions were carried out in phosphate buffered saline with 1 mg/ml BSA and 0.02% sodium azide.
(§2) For equilibrium binding studies, three independent titrations were completed for each Axl Ig1 or Axl Fc fusion unless otherwise noted. […] Each sample was analyzed twice and data from the three independent equilibrium binding experiments were globally analyzed using n-curve analysis in the KinExA Pro 3.6.2 software (Sapidyne Instruments Inc.) to obtain the Kd value.

Protein S (OriGene) = target: T2, Protein S (OriGene) (UniProt P07225 42-676); assay: KinExA signal test on MYD1 Fc coated beads, Protein S probed with an anti-c-Myc antibody
T2 construct: Carries a c-Myc tag by the detection used
T2 sequence (looked up): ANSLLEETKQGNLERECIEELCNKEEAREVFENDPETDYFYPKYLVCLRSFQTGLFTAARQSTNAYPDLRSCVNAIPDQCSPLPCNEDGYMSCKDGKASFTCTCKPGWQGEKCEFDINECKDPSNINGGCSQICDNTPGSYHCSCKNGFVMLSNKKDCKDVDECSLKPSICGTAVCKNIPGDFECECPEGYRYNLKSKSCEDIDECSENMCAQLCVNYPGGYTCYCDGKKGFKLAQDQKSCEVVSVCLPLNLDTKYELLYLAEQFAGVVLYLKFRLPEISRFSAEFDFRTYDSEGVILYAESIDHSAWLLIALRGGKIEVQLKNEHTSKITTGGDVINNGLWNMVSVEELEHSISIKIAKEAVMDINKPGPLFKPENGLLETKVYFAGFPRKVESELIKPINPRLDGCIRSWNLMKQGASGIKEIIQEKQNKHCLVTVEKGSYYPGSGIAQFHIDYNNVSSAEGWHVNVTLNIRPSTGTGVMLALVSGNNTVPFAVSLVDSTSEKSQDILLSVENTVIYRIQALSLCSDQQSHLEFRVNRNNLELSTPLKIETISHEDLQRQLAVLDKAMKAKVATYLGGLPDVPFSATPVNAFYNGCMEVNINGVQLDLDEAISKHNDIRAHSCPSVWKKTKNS
Method: as §1
To test binding of Protein S (OriGene) to MYD1, 700 μl of a 10 nM solution was flowed over the capture beads.

mouse Gas6 [2] = target: T1, mouse Gas6; assay: KinExA
Method: as §1, §2

B1: MYD1 Fc (Fc fusion)
chain: APRGTQAEESPFVSNPGNITGARGLTGTLRCQLQVQGEPPEVHWLRDGQILELADSTQTQVPLGEDEQGDWIVASQLRITSLQLSDTGQYQCLVFLGHQTFVSQPGYVRLEGLPYFLEEPEDRTVAANTPFNLSCQAQGPPEPVDLLWLQDAVPLATAPGHGPQRSLHVPGLNKTSSFSCEAHNAKGVTTSRTATITVLPQQPRNLHLVSRQPTELEVAWTPGLSGIYPLTHCTLQAVLSNDGMGIQAGEPDPPEEPLTSQASVPPHQLRLGSLHPHTPYHIRVACTSSQGPSSWTHWLPVETPEGVPLGPPENISATRNGSQAFVHWQEPRAPLQGTLLGYRLAYQGQDTPEVLMDIGLRQEVTLELQGDGSVSNLTVCVAAYTAAGDGPWSLPVPLEAWRPGQAQPVHQLVKEPSTPAFS
notes: Disulfide-linked dimer from HEK cells; also the capture reagent on the KinExA beads; also called MYD1 Fc fusion; not shown: Fc domain of a human IgG1
**Q.** What does the source list for B1?
**A.** Kd (mouse Gas6 [1]): 1.1 pM; binding result (Protein S (OriGene)): no binding (tested: 10 nM); Kd (mouse Gas6 [2]): ~1 pM
